Results on four molecules are retold here after patent US20260351346 (published 2026).

The test addresses TNFRSF9 (CD137) (human). In words: ELISA. (ELISA stands for enzyme-linked immunosorbent assay.)

Sequence of TNFRSF9 (CD137) (human) (chain, as listed by the source): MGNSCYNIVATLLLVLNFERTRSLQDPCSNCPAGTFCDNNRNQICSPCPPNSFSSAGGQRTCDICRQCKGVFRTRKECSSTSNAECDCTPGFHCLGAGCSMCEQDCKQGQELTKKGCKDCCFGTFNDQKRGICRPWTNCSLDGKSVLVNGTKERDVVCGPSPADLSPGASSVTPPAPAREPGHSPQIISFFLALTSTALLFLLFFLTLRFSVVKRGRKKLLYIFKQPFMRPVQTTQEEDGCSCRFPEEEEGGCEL

B1: 4C2-WTH (antibody, V domains shown)
VH: QSVEESGGRLVTPGTPLTLTCTVSGFSLGTFPIGWVRQAPGSGLEWIGIFNTDGSAAYASWARGRFTVFKNSTTVDLKMTSPTTEDTATYFCARINADYSGWYFGIWGPGTLVTVSS
VL: EMTQTPASVEVAVGGTVTIKCQASQSIYSYLAWYQQKPGQPPKPLIYEASKTPSGVPSRFKGSGSGTEYTLTISGVQCEDAATYYCQKGYSVSNVAFGGGTEVVVK
With B1, it took 3.8 ng/mL to reach a half-maximal effect (EC50).

B2: 4C2-Candi4 (antibody, V domains shown)
VH: EVQLEESGGGVVQPGGSLKLSCTVSGFSLGTFPIGWVRQAPGKGLEWVGIFNTDGSAAYAASVKGRFTVSKNSTKNTVYLHMNSLKTEDTAVYFCARINADYSGWYFGIWGQGTLVTVSS
VL: DIQMTQSPSSLSVSVGGRVTITCQASQSIYSYLAWYQQKPGKAPKLLIYEASKTPSGVPSRFNGNGSGTEYTLTISSLQPEDSATYYCQKGYSVSNVAFGGGTEVEIK
As to B2, the concentration giving a half-maximal response (EC50) (commonly the midpoint of the concentration-response curve) amounted to 2.46 ng/mL.

B3: 4C2-Candi2 (antibody, V domains shown)
VH: EVQLEESGGGLVQPGMSLRLSCTVSGFSLGTFPIGWVRQAPGKGLEWVGIFNTDGSAAYAASVKGRFNVSKNSTKNTVYLHMNSLKTEDTAVYFCARINADYSGWYFGIWGQGTLVTVSS
VL: AQQMTQSPSSLSVSVGGRVTITCQASQSIYSYLAWYQQKPGKAPKLLIYEASKTPSGVPSRFNGNGSGTEYTLTISSLQPEDSATYYCQKGYSVSNVAFGGGTEVEIK
Molecule B3 gave a concentration for a half-maximal effect (EC50) of 2.38 ng/mL.

B4: 4C2-Candi3 (antibody, V domains shown)
VH: EVQLEESGGGLVQPGGSLALSCTVSGFSLGTFPIGWVRQAPGKGLEWVGIFNTDGSAAYAASVKGRFTVSRDSSKNTVYLHMNSLKTEDTAVYFCARINADYSGWYFGIWGQGTLVTVSS
VL: DIQMTQSPSSLSASVGGRVTITCQASQSIYSYLAWYQQKPGKAPKLLIYEASKTPSGVPSRFNGNGSGTDFTLTISSLQPEDSATYYCQKGYSVSNVAFGGGTEVEIK
B4 returned an EC50 of 100 ng/mL.
